Consider one protein from article PMC11408154, “Anti-mutagenic agent targeting LexA to combat antimicrobial resistance in mycobacteria” (The Journal of Biological Chemistry, 2024).

The data set deals with the molecule itself. As to the kind of experiment: cross-linking; glutaraldehyde cross-linking of Mtb LexA with or without 3-nPBA (protein to inhibitor 1:100); stopped with 25 mM DTT; 12% SDS-PAGE.

B1: Mycobacterium tuberculosis LexA (natural protein)
chain: MNDSNDTSVAGGAAGADSRVLSADSALTERQRTILDVIRASVTSRGYPPSIREIGDAVGLTSTSSVAHQLRTLERKGYLRRDPNRPRAVNVRGADDAALPPVTEVAGSDALPEPTFVPVLGRIAAGGPILAEEAVEDVFPLPRELVGEGTLFLLKVIGDSMVEAAICDGDWVVVRQQNVADNGDIVAAMIDGEATVKTFKRAGGQVWLMPHNPAFDPIPGNDATVLGKVVTVIRKV
notes: also called Mtb LexA; WT Mtb LexA
Regarding B1, the binding result is on record as “binds”.
